Results on one substance are retold here after patent publication US20120135022A1.

For assay [1], the target named is AAV1 capsid protein VP3 (AAV1). Nature of the assay: cell-based or functional assay.
In assay [2] the target is AAV2 capsid protein VP3 (AAV2) (UniProt P03135). Nature of the assay: cell-based or functional assay.
UniProt P03135, sequence (P03135 203-735 limits assumed): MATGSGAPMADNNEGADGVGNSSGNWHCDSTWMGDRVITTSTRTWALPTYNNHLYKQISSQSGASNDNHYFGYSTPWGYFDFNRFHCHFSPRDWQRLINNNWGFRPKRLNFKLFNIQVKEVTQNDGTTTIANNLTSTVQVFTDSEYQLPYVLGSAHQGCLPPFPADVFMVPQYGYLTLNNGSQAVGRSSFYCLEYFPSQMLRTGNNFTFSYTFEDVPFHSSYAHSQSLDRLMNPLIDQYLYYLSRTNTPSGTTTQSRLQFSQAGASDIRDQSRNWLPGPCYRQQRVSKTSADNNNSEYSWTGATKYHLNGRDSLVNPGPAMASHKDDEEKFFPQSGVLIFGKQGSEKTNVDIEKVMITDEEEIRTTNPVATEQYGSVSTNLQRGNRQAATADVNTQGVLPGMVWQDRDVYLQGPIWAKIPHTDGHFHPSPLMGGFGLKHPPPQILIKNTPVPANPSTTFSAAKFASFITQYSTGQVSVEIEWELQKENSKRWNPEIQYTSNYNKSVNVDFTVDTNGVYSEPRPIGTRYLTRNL

“C-terminally truncated AAP (AAPtru) of AAV2 expressed from pVP2N-gfp (from UniProt D5SGZ8 2-177)” displayed a Particle titer (AAV1 capsid ELISA) after trans-complementation in assay [1] of 3.4e+10. In addition, the Particle titer (AAV2 capsid ELISA) after trans-complementation in assay [2] amounted to 2.1e+11.
